The results in this text go back to publication PMC11749594, “Tracing TMEM106B fibril deposition in aging and Parkinson’s disease with dementia brains” (Life Medicine, 2024).

This data set deals with the molecule itself. Briefly: cryo-EM structure; fibrils extracted from the frontal cortex of case 1 of PDD, pretreated with pronase for 30 min; helical reconstruction at 3.5 Å.

B1: TMEM106B fibril (Type 1) extracted from the frontal cortex of case 1 of PDD (domain or fragment, human (endogenous in brain tissue), UniProt Q9NUM4 120-254, looked up)
chain: SIDVKYIGVKSAYVSYDVQKRTIYLNITNTLNITNNNYYSVEVENITAQVQFSKTVIGKARLNNITIIGPLDMKQIDYTVPTVIAEEMSYMYDFCTLISIKVHNIVLMMQVTVTTTYFGHSEQISQERYQYVDCG
modifications: four potentially glycosylated Asn residues
notes: Transmembrane protein 106B (TMEM106B), human, fibril core of residues 120-254 (luminal domain); Amyloid fibril with many stacked copies of the chain; the atomic model was built as three layers; Residues 120-254 are the ordered core seen by cryo-EM; also called Transmembrane protein 106B fibril; brain-extracted TMEM106B fibril; source: extracted from postmortem human brain (frontal lobe, case 1 of …)
For B1, the binding result is recorded as “binds”.
